Laboratory results taken from US20240150490A1.

Key:
[1] = target: CA IX expressed by cells (C-33a_CA IX transfectants; hypoxic BT-20, JIMT-1, 8-MG-BA and 42-MG-BA cells) (human) (UniProt Q16790); experiment: flow cytometry, M75 1 ug/ml and Alexa 488 secondary antibody, hypoxic BT-20 cells
[2] = target: CA IX expressed by cells (C-33a_CA IX transfectants; hypoxic BT-20, JIMT-1, 8-MG-BA and 42-MG-BA cells) (human) (UniProt Q16790); experiment: flow cytometry, M75 1 ug/ml and Alexa 488 secondary antibody, hypoxic JIMT-1 cells

median signal level of CA IX-staining [1]: 108
median signal level of CA IX-staining [2]: 86.8
Substance: mouse monoclonal antibody M75
